Earlier results on 17 sequences are cited in paper PMC12990809.

What all share (test): pulldown
Holding throughout (details): 20 nM protein, 1.5 uM RNA pool; 20 mM HEPES pH 7.8, 70 mM KCl, 10 mM NaCl, 10% glycerol, 2 mM DTT, 0.1 ug/uL BSA; 30 min, 4 C (protocol of this paper; not …); cited from earlier work

The target in series [1] is T1, PFF0320c (Plasmodium falciparum) (UniProt C6KSR3).
T1 sequence: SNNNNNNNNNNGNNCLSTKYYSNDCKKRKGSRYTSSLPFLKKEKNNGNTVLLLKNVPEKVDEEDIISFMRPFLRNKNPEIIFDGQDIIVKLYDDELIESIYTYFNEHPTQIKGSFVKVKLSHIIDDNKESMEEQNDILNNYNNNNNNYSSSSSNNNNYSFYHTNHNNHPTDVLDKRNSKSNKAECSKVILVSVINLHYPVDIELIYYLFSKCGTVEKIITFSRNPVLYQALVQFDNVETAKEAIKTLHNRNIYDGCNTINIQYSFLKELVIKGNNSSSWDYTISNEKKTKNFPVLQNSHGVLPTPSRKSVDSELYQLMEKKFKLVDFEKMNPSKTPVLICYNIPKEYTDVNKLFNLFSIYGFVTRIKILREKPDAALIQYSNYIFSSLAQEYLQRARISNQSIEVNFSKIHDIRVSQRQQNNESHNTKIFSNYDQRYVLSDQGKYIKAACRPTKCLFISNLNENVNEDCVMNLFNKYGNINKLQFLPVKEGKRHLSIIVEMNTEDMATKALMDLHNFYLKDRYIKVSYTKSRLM

Series [2] deals with T2, Smp_067420 (Schistosoma mansoni) (UniProt G4LZ80).
T2 sequence: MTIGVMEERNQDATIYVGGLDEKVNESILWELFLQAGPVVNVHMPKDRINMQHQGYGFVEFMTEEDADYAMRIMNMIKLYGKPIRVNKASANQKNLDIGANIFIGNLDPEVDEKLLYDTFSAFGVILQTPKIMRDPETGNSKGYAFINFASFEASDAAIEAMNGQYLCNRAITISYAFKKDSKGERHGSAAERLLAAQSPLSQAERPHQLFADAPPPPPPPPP

The target of the next series is T3, rbm4.3 (Danio rerio) (UniProt A0ACM8Q3W8).
T3 sequence: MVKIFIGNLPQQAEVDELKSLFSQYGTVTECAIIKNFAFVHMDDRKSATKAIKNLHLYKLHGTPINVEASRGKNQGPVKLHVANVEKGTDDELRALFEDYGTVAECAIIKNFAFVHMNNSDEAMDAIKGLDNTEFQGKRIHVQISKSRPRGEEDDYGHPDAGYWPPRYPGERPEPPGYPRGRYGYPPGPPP

Series [3] deals with T4, estExt_gwp_gw1.C_700168 (Physcomitrella patens) (UniProt A0A2K1JQP1).
T4 sequence: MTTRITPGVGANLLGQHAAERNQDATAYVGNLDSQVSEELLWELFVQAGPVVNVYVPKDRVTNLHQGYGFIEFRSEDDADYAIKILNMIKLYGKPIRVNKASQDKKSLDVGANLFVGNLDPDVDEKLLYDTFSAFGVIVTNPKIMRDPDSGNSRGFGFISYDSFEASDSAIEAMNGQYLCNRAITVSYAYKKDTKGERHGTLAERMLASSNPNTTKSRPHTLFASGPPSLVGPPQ

The target of series [4] is T5, TVAG_514790 (Trichomonas vaginalis) (UniProt A2GMP0).
T5 sequence: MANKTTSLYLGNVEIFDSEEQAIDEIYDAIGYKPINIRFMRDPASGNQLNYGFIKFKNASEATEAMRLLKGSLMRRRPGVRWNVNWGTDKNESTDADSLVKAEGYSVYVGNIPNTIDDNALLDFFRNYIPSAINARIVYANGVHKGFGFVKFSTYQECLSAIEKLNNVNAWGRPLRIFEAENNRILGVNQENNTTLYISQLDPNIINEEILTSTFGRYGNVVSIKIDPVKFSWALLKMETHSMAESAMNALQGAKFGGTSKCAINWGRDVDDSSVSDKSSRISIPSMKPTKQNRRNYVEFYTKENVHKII

The target of another series is T6, Rbm45 (Mus musculus) (UniProt Q8BHN5).
T6 sequence: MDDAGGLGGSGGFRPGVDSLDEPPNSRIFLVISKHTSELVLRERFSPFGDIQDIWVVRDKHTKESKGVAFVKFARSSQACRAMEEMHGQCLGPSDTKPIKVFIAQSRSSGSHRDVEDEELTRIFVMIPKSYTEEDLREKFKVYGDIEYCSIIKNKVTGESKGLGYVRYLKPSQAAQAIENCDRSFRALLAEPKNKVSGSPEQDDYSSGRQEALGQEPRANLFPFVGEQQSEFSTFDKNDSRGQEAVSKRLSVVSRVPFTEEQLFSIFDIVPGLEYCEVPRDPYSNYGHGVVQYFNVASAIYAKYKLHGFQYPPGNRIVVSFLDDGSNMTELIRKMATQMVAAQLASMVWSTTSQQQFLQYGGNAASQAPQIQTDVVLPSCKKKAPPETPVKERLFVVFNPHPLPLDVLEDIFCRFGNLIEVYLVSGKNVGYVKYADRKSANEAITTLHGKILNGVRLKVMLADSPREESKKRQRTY

In the next series the target is pcbp2 (Danio rerio) (UniProt A0A8M1PCB6).
Sequence of pcbp2 (Danio rerio) (A0A8M1PCB6 entry or part of it): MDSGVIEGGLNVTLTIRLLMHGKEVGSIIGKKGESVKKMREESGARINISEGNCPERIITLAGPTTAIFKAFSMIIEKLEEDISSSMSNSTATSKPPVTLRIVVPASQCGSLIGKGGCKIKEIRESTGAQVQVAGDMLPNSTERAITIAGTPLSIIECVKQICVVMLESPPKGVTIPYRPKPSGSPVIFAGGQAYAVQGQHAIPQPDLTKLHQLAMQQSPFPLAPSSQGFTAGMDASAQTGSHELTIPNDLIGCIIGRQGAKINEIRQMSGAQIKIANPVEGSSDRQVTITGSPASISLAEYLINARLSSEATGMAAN
Series [5] has as its target T7, PF10_0214 (Plasmodium falciparum) (UniProt Q8IJI3).
T7 sequence: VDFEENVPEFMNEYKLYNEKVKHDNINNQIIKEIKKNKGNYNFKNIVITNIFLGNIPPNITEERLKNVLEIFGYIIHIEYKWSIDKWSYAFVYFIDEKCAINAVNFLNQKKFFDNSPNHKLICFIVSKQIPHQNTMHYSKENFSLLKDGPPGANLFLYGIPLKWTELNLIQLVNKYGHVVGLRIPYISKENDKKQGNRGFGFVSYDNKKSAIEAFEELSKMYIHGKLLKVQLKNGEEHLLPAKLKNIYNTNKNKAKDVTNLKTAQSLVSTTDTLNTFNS

In series [6] the target is T8, gw1.84.45.1 (Physcomitrella patens) (UniProt A0A2K1L0S1).
T8 sequence: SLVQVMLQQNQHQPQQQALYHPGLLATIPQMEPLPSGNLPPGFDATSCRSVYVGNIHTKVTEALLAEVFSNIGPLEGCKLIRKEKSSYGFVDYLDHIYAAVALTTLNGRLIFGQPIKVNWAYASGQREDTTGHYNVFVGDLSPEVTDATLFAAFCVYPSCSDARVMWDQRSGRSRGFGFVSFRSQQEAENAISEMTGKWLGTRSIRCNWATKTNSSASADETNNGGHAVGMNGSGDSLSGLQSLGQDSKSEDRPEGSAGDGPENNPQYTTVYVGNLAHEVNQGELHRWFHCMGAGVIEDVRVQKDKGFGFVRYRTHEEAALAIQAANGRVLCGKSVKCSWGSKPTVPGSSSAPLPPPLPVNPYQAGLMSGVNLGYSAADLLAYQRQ

The target of series [7] is T9, NCU02404 (Neurospora crassa) (UniProt V5ILJ4).
T9 sequence: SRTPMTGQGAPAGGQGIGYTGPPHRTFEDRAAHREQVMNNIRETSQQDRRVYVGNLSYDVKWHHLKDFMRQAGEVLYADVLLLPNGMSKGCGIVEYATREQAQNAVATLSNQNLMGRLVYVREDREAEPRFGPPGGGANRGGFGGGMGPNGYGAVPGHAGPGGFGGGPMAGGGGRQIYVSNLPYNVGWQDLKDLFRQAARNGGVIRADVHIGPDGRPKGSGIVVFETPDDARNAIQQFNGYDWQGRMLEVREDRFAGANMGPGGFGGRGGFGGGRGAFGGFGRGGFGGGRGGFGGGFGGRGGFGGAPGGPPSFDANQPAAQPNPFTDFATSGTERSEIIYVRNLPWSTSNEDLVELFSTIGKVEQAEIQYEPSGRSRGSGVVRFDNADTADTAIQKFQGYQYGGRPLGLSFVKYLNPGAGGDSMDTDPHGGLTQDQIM

Series [8] has as its target hnrnpabb (Tetraodon nigroviridis) (UniProt Q4SDS6).
The target of series [9] is T10, Tb927.3.3670 (Trypanosoma brucei) (UniProt Q57WA3).
T10 sequence: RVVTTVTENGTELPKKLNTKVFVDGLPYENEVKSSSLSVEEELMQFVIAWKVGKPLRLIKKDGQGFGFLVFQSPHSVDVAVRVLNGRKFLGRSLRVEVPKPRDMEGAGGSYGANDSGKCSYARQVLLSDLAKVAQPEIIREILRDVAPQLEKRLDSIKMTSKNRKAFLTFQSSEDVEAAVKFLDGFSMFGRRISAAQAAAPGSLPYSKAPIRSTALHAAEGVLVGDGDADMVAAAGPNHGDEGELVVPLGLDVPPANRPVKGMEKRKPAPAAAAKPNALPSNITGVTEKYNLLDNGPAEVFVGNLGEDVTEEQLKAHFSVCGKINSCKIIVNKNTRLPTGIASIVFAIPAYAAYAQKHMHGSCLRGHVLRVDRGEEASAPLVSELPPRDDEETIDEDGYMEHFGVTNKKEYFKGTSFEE

The target of series [10] is T11, gw1.219.6.1 (Physcomitrella patens) (UniProt A0A2K1KNA4).
T11 sequence: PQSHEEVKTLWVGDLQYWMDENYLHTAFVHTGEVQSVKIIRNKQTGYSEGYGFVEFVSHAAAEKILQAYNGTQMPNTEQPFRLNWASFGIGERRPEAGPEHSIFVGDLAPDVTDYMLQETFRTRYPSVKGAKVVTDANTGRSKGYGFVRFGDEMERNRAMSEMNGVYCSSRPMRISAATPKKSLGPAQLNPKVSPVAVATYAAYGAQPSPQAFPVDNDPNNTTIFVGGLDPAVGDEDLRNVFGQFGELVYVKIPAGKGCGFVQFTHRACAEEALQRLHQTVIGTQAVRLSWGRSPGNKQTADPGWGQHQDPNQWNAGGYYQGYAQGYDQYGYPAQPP

A further series has as its target Pcbp1 (Mus musculus) (UniProt P60335).
The target in series [11] is T12, MAL13P1.35 (Plasmodium falciparum) (UniProt C0H5A4).
T12 sequence: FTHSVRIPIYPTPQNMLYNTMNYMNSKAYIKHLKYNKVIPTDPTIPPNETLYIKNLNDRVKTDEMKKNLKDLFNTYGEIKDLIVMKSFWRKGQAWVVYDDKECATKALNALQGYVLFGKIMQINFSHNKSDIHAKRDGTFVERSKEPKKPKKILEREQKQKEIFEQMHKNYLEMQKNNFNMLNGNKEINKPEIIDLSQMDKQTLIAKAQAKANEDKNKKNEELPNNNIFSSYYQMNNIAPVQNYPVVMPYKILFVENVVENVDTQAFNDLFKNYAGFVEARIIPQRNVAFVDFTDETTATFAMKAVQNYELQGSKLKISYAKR

Series [12] addresses T13, Phyra93644 G140S (Phytophthora ramorum) (UniProt H3HB24).
T13 sequence: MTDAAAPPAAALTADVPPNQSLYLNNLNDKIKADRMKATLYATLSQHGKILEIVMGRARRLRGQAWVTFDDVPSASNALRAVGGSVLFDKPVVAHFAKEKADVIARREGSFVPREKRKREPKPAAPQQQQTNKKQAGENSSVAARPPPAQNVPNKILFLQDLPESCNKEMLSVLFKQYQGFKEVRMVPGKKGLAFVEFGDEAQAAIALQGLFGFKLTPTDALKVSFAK

In series [13] the target is T14, fox-1 ins385_GNEYIMYHQAKQQELP (Caenorhabditis elegans) (UniProt Q10572).
T14 sequence: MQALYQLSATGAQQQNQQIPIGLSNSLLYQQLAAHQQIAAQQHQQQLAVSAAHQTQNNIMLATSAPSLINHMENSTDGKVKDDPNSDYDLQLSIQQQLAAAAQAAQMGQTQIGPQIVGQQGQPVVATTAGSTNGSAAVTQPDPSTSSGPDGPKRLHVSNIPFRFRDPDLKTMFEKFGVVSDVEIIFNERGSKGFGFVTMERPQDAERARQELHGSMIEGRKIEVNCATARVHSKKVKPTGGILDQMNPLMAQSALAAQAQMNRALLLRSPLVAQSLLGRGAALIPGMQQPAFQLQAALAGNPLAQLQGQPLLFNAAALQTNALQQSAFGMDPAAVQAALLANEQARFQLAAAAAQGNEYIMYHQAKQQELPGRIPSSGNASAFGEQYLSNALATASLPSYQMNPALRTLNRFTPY

Sequence of Pcbp1 (Mus musculus) (P60335 whole entry): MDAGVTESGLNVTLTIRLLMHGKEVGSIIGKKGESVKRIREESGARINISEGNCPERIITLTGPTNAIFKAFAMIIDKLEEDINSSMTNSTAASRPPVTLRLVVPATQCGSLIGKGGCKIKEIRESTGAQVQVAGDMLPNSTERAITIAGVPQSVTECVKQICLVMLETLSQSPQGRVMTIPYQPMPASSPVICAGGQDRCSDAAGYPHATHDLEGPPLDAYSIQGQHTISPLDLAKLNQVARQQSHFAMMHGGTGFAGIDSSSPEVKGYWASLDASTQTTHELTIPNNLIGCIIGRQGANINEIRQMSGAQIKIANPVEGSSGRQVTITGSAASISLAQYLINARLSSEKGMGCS
Sequence of hnrnpabb (Tetraodon nigroviridis) (Q4SDS6 entry or part of it): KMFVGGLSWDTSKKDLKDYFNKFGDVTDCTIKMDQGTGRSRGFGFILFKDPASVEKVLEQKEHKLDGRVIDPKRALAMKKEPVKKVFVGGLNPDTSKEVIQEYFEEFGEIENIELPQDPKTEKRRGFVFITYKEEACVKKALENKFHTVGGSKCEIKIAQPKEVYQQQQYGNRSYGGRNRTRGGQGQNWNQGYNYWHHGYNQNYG

Turning to ACUAAAC [RNAcompete motif RNCMPT00235], in series [1], the binding signal (z-score (mean of top ten 7-mers)) was 8.17.
On to AUUUUUU [RNAcompete motif RNCMPT00232], for which the binding signal (z-score (mean of top ten 7-mers)) in series [2] is 8.88.
As for ACGACG [RNAcompete motif RNCMPT00248], in the series with rbm4.3 (Danio rerio), the binding signal (z-score (mean of top ten 7-mers)) was 10.2.
With GAUGGAGU [RNAcompete motif RNCMPT00237], the binding signal (z-score (mean of top ten 7-mers)) in series [3] was 9.26.
UUUUUU [RNAcompete motif RNCMPT00236]: in series [4], the binding signal (z-score (mean of top ten 7-mers)) is 10.3.
As for GACGAC [RNAcompete motif RNCMPT00241], the binding signal (z-score (mean of top ten 7-mers)) with Rbm45 (Mus musculus) was 10.6.
Take CUUUCCC [RNAcompete motif RNCMPT00246]: in the series with pcbp2 (Danio rerio), the binding signal (z-score (mean of top ten 7-mers)) is 6.92.
In the case of AUUCCGA [RNAcompete motif RNCMPT00240], the binding signal (z-score (mean of top ten 7-mers)) in series [5] was 11.3.
With UUUUUU [RNAcompete motif RNCMPT00228], in series [6], the binding signal (z-score (mean of top ten 7-mers)) is 12.9.
In the case of GGAGGA [RNAcompete motif RNCMPT00238], in [7], the binding signal (z-score (mean of top ten 7-mers)) is 6.21.
In the case of AGAUAGA [RNAcompete motif RNCMPT00245], the binding signal (z-score (mean of top ten 7-mers)) in series [8] is 8.14.
Take GAAGGA [RNAcompete motif RNCMPT00230]: in series [9], the binding signal (z-score (mean of top ten 7-mers)) is 6.23.
Consider UGUUUUU [RNAcompete motif RNCMPT00229], for which the binding signal (z-score (mean of top ten 7-mers)) in series [10] was 6.94.
Regarding CUUUCCC [RNAcompete motif RNCMPT00239], the binding signal (z-score (mean of top ten 7-mers)) in the series with Pcbp1 (Mus musculus) is 6.21.
For the sequence AUUACAC [RNAcompete motif RNCMPT00234], in [11], the binding signal (z-score (mean of top ten 7-mers)) is 15.8.
For UUGCAC [RNAcompete motif RNCMPT00249], in [12], the binding signal (z-score (mean of top ten 7-mers)) is 12.
For UGCAUG [RNAcompete motif RNCMPT00017], the binding signal (z-score (mean of top ten 7-mers)) in series [13] was 24.8.
